Reference: article PMC6393309 (Nucleic Acids Research, 2019)
Residue numbers refer to the chain shown, from its start. Numbers in names are those of the source. Read-outs that look alike come from different tables or passages of the source.

What was measured:
GB2005 E. coli cells [1] = assay: ssDNA recombination assay; type: cell-based; conditions: % of WT colonies per 10^8 viable cells
GB2005 E. coli cells [2] = assay: dsDNA recombination assay; type: cell-based; conditions: % of WT colonies per 10^8 viable cells
[3] = individual CTD mutations; cited from earlier work
λ Exo = conditions: cited from earlier work

B1: F249A Redβ: Redβ variant (protein)
chain: MSTALATLAGKLAERVGMDSVDPQELITTLRQTAFKGDASDAQFIALLIVANQYGLNPWTKEIYAFPDKQNGIVPVVGVDGWSRIINENQQFDGMDFEQDNESCTCRIYRKDRNHPICVTEWMDECRREPFKTREGREITGPWQSHPKRMLRHKAMIQCARLAFGFAGIYDKDEAERIVENTAYTAERQPERDITPVNDETMQEINTLLIALDKTWDDDLLPLCSQIFRRDIRASSELTQAEAVKALGALKQKAAEQKVAA
With B1 the “SS (%): ssDNA recombination compared to WT” value (from here on “SS (%): ssDNA recombination”) (GB2005 E. coli cells [1]) was 0.73%, the “DS (%): dsDNA recombination compared to WT” value (from here on “DS (%): dsDNA recombination”) (GB2005 E. coli cells [2]) was 0.21% and the “DS (%): dsDNA recombination” value (GB2005 E. coli cells [2]; listed as F249A) was 0–0.7%.

B2: F94E λexo: λ Exo variant (protein)
chain: MTPDIILQRTGIDVRAVEQGDDAWHKLRLGVITASEVHNVIAKPRSGKKWPDMKMSYFHTLLAEVCTGVAPEVNAKALAWGKQYENDARTLFEETSGVNVTESPIIYRDESMRTACSPDGLCSDGNGLELKCPFTSRDFMKFRLGGFEAIKSAYMAQVQYSMWVTRKNAWYFANYDPRMKREGLHYVVIERDEKYMASFDEIVPEFIEKMDEALAEIGFVFGEQWR
modifications: left off: His6, N-terminal, kept
With B2 the “SS (%): ssDNA recombination” value (GB2005 E. coli cells [1]) was 177%, the “DS (%): dsDNA recombination” value (GB2005 E. coli cells [2]) was 0.68% and the “DS (%): dsDNA recombination” value (GB2005 E. coli cells [2]; listed as F94E) was 0.6–3%.

B3: L223A Redβ: Redβ variant (protein)
chain: B1 chain with L223A, A249F
In the case of B3, the “SS (%): ssDNA recombination” value (GB2005 E. coli cells [1]) is reported as 3.5%, the “DS (%): dsDNA recombination” value (GB2005 E. coli cells [2]) is reported as 0.72% and the “DS (%): dsDNA recombination” value (GB2005 E. coli cells [2]; listed as L223A) is reported as 0–0.7%.

B4: L223D Redβ: Redβ variant (protein)
chain: B1 chain with L223D, A249F
For B4, the “SS (%): ssDNA recombination” value (GB2005 E. coli cells [1]) was 0.68%, the “DS (%): dsDNA recombination” value (GB2005 E. coli cells [2]) was 0.11% and the “DS (%): dsDNA recombination” value (GB2005 E. coli cells [2]; listed as L223D) was 0–0.7%.

B5: D87A λexo (protein)
chain: B2 chain with D87A, E94F
modifications: left off: His6, N-terminal, kept
In the case of B5, the “SS (%): ssDNA recombination” value (GB2005 E. coli cells [1]) is reported as 179%, the “DS (%): dsDNA recombination” value (GB2005 E. coli cells [2]) is reported as 55% and the “DS (%): dsDNA recombination” value (GB2005 E. coli cells [2]; listed as D87A) is reported as 55–106%.

B6: Q226A Redβ: Redβ variant (protein)
chain: B1 chain with Q226A, A249F
In the case of B6, the “SS (%): ssDNA recombination” value (GB2005 E. coli cells [1]; listed as Q226A) is reported as 13 to 101%, the “DS (%): dsDNA recombination” value (GB2005 E. coli cells [2]) is reported as 106% and the “DS (%): dsDNA recombination” value (GB2005 E. coli cells [2]; listed as Q226A) is reported as 55–106%.

B7: R229A Redβ: Redβ variant (protein)
chain: B1 chain with R229A, A249F
For B7, the “SS (%): ssDNA recombination” value (GB2005 E. coli cells [1]) was 58%, the “SS (%): ssDNA recombination” value (GB2005 E. coli cells [1]; listed as R229A) was 13 to 101% and the “DS (%): dsDNA recombination” value (GB2005 E. coli cells [2]) was 71%. The “DS (%): dsDNA recombination” value (GB2005 E. coli cells [2]; listed as R229A) was 55–106%.

B8: Q252A Redβ: Redβ variant (protein)
chain: B1 chain with A249F, Q252A
In the case of B8, the “SS (%): ssDNA recombination” value (GB2005 E. coli cells [1]) is given as 101%, the “SS (%): ssDNA recombination” value (GB2005 E. coli cells [1]; listed as Q252A) is given as 13 to 101% and the “dsDNA relative to ssDNA recombination” value [3] is given as “decreased dsDNA more than ssDNA recombination”. The “DS (%): dsDNA recombination” value (GB2005 E. coli cells [2]) was 85% and the “DS (%): dsDNA recombination” value (GB2005 E. coli cells [2]; listed as Q252A) was 55–106%.

B9: E256A Redβ: Redβ variant (protein)
chain: B1 chain with A249F, E256A
For B9, the “SS (%): ssDNA recombination” value (GB2005 E. coli cells [1]) is listed as 55%, the “SS (%): ssDNA recombination” value (GB2005 E. coli cells [1]; listed as E256A) is listed as 13 to 101% and the “dsDNA relative to ssDNA recombination” value [3] is listed as “decreased dsDNA more than ssDNA recombination”. For the same molecule, the “DS (%): dsDNA recombination” value (GB2005 E. coli cells [2]) was 69% and the “DS (%): dsDNA recombination” value (GB2005 E. coli cells [2]; listed as E256A) was 55–106%.

B10: Q240A (protein, UniProt P03698 1-261, looked up, variant Q240A)
Recombination protein bet: B1 chain with Q240A, A249F
For B10, the “dsDNA relative to ssDNA recombination” value [3] is given as “disrupted dsDNA and ssDNA equally” and the “interaction with λ Exo” value (λ Exo) is given as “weakened (but did not abolish) the interaction with λ Exo”.

B11: NTD: N-terminal domain of Redβ, residues 1–177 (protein)
chain: MSTALATLAGKLAERVGMDSVDPQELITTLRQTAFKGDASDAQFIALLIVANQYGLNPWTKEIYAFPDKQNGIVPVVGVDGWSRIINENQQFDGMDFEQDNESCTCRIYRKDRNHPICVTEWMDECRREPFKTREGREITGPWQSHPKRMLRHKAMIQCARLAFGFAGIYDKDEAER
In the case of B11, the “interaction with λ Exo” value (λ Exo; Ni-spin pull down) is listed as “no interaction”.

B12: F249D Redβ (protein)
chain: B1 chain with A249D
With B12 the “SS (%): ssDNA recombination” value (GB2005 E. coli cells [1]) was 0.41% and the “DS (%): dsDNA recombination” value (GB2005 E. coli cells [2]) was 0%.

B13: K253A Redβ (protein)
chain: B1 chain with A249F, K253A
With B13 the “SS (%): ssDNA recombination” value (GB2005 E. coli cells [1]) was 2.5% and the “DS (%): dsDNA recombination” value (GB2005 E. coli cells [2]) was 0.20%.

B14: L91A λexo (protein)
chain: B2 chain with L91A, E94F
modifications: left off: His6, N-terminal, kept
With B14 the “SS (%): ssDNA recombination” value (GB2005 E. coli cells [1]) was 103% and the “DS (%): dsDNA recombination” value (GB2005 E. coli cells [2]) was 0.63%.

B15: L91D λexo (protein)
chain: B2 chain with L91D, E94F
modifications: left off: His6, N-terminal, kept
With B15 the “SS (%): ssDNA recombination” value (GB2005 E. coli cells [1]) was 110% and the “DS (%): dsDNA recombination” value (GB2005 E. coli cells [2]) was 3.1%.

B16: F94A λexo (protein)
chain: B2 chain with E94A
modifications: left off: His6, N-terminal, kept
In the case of B16, the “SS (%): ssDNA recombination” value (GB2005 E. coli cells [1]) is reported as 183% and the “DS (%): dsDNA recombination” value (GB2005 E. coli cells [2]) is reported as 1.6%.

B17: K132A Redβ: Redβ variant, non-interfacial residue Lys-132 of the NTD, control (protein)
chain: B1 chain with K132A, A249F
With B17 the “SS (%): ssDNA recombination” value (GB2005 E. coli cells [1]) was 20% and the “DS (%): dsDNA recombination” value (GB2005 E. coli cells [2]) was 19%.
